Experimental data as given in publication PMC12151148.

B1: Insc (18–66) (domain or fragment)
chain: WGLWGAQESRRLCCVGPDRCGQALLQIGINMMALPGGRHLDSVPLQEQR
B2: NuMA (1886–1912) (domain or fragment)
chain: NSFYMGTCQDEPEQLDDWNRIAELQQR
B3: NuMA (1808–2001) (domain or fragment)
chain: KLDVEEPDSANSSFYSTRSAPASQASLRATSSTQSLARLGSPDYGNSALLSLPGYRPTTRSSARRSQAGVSSGAPPGRNSFYMGTCQDEPEQLDDWNRIAELQQRNRVCPPHLKTCYPLESRPSLSLGTITDEEMKTGDPQETLRRASMQPIQIAEGTGITTRQQRKRVSLEPHQGPGTPESKKATSCFPRPMT
B4: NuMA (1847–1914) (domain or fragment)
chain: GSPDYGNSALLSLPGYRPTTRSSARRSQAGVSSGAPPGRNSFYMGTCQDEPEQLDDWNRIAELQQRNR

Experiments:
AGS3-TPR (1–405) (mouse) [1] = experiment: ITC; 25°C; 50 mM Tris (pH 8.0), NaCl raised to 300 mM for AGS3-TPR or AGS3-L, 1 mM EDTA; one protein (0.2 mM) injected into another (0.02 mM); one-site binding model
FL-AGS3 (mouse) = experiment: ITC; 25°C; 50 mM Tris (pH 8.0), 100 mM NaCl, 1 mM EDTA; one protein (0.2 mM) injected into another (0.02 mM); one-site binding model
[2] = biological target: FL-LGN + Gαi3⋅GDP (mouse | human) (UniProt P08754); experiment: as above
[3] = biological target: FL-AGS3 + Gαi3⋅GDP (mouse | human) (UniProt P08754); experiment: as above
FL-LGN (mouse) = experiment: as above
FL-LGN-4E (mouse) = experiment: SEC-MALS; called SLS; HELEOS II (Wyatt); 100 μl of purified sample at about 10 μM
FL-AGS3-L-4E (mouse) = experiment: as above
AGS3-L (−23–405) (mouse) = experiment: as above
LGN-TPR (1–409) (mouse) = experiment: as above
AGS3-TPR (1–405) (mouse) [4] = experiment: as above

Sequence of FL-LGN + Gαi3⋅GDP (mouse | human) (P08754 whole entry, looked up): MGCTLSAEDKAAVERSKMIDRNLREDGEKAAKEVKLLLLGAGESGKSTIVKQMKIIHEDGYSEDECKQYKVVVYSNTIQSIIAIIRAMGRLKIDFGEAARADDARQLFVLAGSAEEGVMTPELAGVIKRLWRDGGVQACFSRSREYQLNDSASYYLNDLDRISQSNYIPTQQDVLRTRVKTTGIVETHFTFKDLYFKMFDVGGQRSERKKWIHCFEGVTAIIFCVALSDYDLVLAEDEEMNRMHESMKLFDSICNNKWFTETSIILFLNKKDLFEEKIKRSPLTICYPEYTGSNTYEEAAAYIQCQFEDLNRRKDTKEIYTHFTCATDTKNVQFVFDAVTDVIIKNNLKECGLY
Sequence of FL-AGS3 + Gαi3⋅GDP (mouse | human) (P08754 whole entry, looked up): as above

Binder	Kd (AGS3-TPR (1–405) (mouse) [1]) [nM]	Kd (FL-AGS3 (mouse)) [nM]	Kd [2] [nM]	Kd [3] [nM]	Kd (FL-LGN (mouse)) [nM]	stoichiometry N (NuMA per FL-LGN-4E (2:2)) (FL-LGN-4E (mouse))	stoichiometry N (NuMA per FL-AGS3-L-4E (1:1)) (FL-AGS3-L-4E (mouse))	stoichiometry N (NuMA per AGS3-L (3:3)) (AGS3-L (−23–405) (mouse))	stoichiometry N (NuMA per LGN-TPR (3:3)) (LGN-TPR (1–409) (mouse))	stoichiometry N (NuMA per AGS3-TPR (1:1)) (AGS3-TPR (1–405) (mouse) [4])
B1	290	2270	2620	2290	3920					
B2	220									
B3		3610	2240	2280	3130	1	1			
B4								1	1	1
